From paper PMC3246441, “Structural Basis of Response Regulator Inhibition by a Bacterial Anti-Activator Protein” (PLoS Biology, 2011)

B2: RapF (natural protein, B. subtilis)
chain: GSMTGVISSSSIGEKINEWYMYIRRFSIPDAEYLRREIKQELDQMEEDQDLHLYYSLMEFRHNLMLEYLEPLEKMRIEEQPRLSDLLLEIDKKQARLTGLLEYYFNFFRGMYELDQREYLSAIKFFKKAESKLIFVKDRIEKAEFFFKMSESYYYMKQTYFSMDYARQAYEIYKEHEAYNIRLLQCHSLFATNFLDLKQYEDAISHFQKAYSMAEAEKQPQLMGRTLYNIGLCKNSQSQYEDAIPYFKRAIAVFEESNILPSLPQAYFLITQIHYKLGKIDKAHEYHSKGMAYSQKAGDVIYLSEFEFLKSLYLSGPDEEAIQGFFDFLESKMLYADLEDFAIDVAKYYHERKNFQKASAYFLKVEQVRQLIQGGVSLYEIEV
notes: two heterologous residues (Gly-Ser) derived from the thrombin cleavage signal, left after removal of the N-terminal GST; RapF, Bacillus subtilis, residues 1-381; The purification is told under 'Protein Purification for Crystallization'; Monomer by SE AUC; also called wild-type RapF; source: E. coli BL21, purified (glutathione resin, thrombin cleavage, anion exchange, gel filtration); not shown: …
B6: His-ComA (wild-type full-length ComA with His tag) (natural protein, B. subtilis, UniProt P14204 1-214, looked up)
chain: MKKILVIDDHPAVMEGTKTILETDSNLSVDCLSPEPSEQFIKQHDFSSYDLILMDLNLGGEVNGMELSKQILQENPHCKIIVYTGYEVEDYFEEAIRAGLHGAISKTESKEKITQYIYHVLNGEILVDFAYFKQLMTQQKTKPAPSSQKEQDVLTPRECLILQEVEKGFTNQEIADALHLSKRSIEYSLTSIFNKLNVGSRTEAVLIAKSDGVL
notes: ComA response regulator, Bacillus subtilis, full length; Purification of His-ComA is in Text S1; also called ComA2

What was measured:
RapF [1] = molecular target: B2; experiment: SEC; Superdex 200 HR10/30 in Buffer A; RapF 20 µM, His-ComA 40 µM, with PhrF 200 µM, incubated 30 min at 4°C; fractions by SDS-PAGE; settings: both partners purified
[2] = molecular target: B6; experiment: SEC + other: total amino acid analysis; 40 µM RapF and 80 µM His-ComA in Buffer A on Superdex 200 HR10/30; fractions 12.0-13.5 ml, bands separated by SDS-PAGE and excised for total amino acid analysis (unpublished data); settings: both partners purified
RapF [3] = molecular target: B2; experiment: native gel or EMSA; 10 µM RapF and 10 µM ComA or His-ComA incubated in Buffer A (20 mM Tris pH 8.0, 300 mM NaCl, 5 mM MgCl2, 1 mM DTT, 5% glycerol) 30 min at 4°C; 12% Tris-glycine native PAGE at 4°C, Coomassie; disappearance of the ComA band as indicator; settings: both partners purified
[4] = molecular target: the molecule itself; experiment: SEC; Superdex 200 HR10/30 in Buffer A; RapF 20 µM, His-ComA 40 µM, incubated 30 min at 4°C; fractions by SDS-PAGE; no PhrF
RapF-P27A = molecular target: T1, RapF-P27A (B. subtilis, UniProt P71002 2-381, P27A); experiment: native gel or EMSA; 10 µM RapF and 10 µM ComA or His-ComA incubated in Buffer A (20 mM Tris pH 8.0, 300 mM NaCl, 5 mM MgCl2, 1 mM DTT, 5% glycerol) 30 min at 4°C; 12% Tris-glycine native PAGE at 4°C, Coomassie; disappearance of the ComA band as indicator; settings: both partners purified
T1 construct: RapF, Bacillus subtilis, with one alanine substitution; Text S1 may tell
T1 sequence: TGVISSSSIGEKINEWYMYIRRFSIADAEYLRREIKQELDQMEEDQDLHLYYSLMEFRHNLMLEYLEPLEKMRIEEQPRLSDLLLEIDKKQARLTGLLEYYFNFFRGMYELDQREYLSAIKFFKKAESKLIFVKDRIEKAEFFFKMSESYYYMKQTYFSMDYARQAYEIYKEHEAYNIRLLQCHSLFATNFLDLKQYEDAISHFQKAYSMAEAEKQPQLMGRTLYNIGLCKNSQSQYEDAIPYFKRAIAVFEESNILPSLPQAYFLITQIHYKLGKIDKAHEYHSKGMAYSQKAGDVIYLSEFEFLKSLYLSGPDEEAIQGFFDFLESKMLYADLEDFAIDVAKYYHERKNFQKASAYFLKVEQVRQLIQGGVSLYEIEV

RapF-E71A = molecular target: T2, RapF-E71A (B. subtilis, UniProt P71002 2-381, E71A); experiment: as above; settings: both partners purified
T2 construct: RapF, Bacillus subtilis, with one alanine substitution; Text S1 may tell
T2 sequence: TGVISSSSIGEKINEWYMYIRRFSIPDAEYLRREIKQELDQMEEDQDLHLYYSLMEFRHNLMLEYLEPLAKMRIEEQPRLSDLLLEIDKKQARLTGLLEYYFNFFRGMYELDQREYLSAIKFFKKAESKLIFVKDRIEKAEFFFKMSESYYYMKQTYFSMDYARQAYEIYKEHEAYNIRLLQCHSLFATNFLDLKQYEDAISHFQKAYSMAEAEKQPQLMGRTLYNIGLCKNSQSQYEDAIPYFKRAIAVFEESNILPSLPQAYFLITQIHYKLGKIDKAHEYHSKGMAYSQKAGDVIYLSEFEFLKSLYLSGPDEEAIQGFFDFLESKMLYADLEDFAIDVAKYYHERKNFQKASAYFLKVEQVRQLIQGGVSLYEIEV

RapF [5] = molecular target: B2; experiment: native gel or EMSA; native PAGE binding studies with a broad concentration range of RapF and a fixed quantity of ComA (unpublished data), together with the qualitative gels; Kd is an estimate; settings: both partners purified
RapF [6] = molecular target: B2; experiment: crystal structure; RapF-ComAC co-crystals, vapor diffusion at 20°C, 1∶1 mixture of 100 µM RapF and ComAC; 6% PEG 8,000, 240 mM calcium acetate, 80 mM sodium cacodylate pH 6.5, 20% glycerol; 2.30 Å; settings: both partners purified

B1: PhrF peptide (peptide)
peptide: QRGMI
notes: mature PhrF signalling pentapeptide of Bacillus subtilis, cut from the pro-PhrF polypeptide; Free N- and C-termini as printed (NH2-QRGMI-COOH); also called synthetic PhrF peptide; NH2-QRGMI-COOH; source: synthetic peptide (LifeTein)
Question: Does B1 bind (RapF [1])?
Answer: binds

Question: With B2 as the binder, how does the “stoichiometry N” value [2] read?
Answer: 1

B3: ComA-T190A (His-ComA mutant) (natural protein, B. subtilis, UniProt P14204 1-214, looked up)
chain: MKKILVIDDHPAVMEGTKTILETDSNLSVDCLSPEPSEQFIKQHDFSSYDLILMDLNLGGEVNGMELSKQILQENPHCKIIVYTGYEVEDYFEEAIRAGLHGAISKTESKEKITQYIYHVLNGEILVDFAYFKQLMTQQKTKPAPSSQKEQDVLTPRECLILQEVEKGFTNQEIADALHLSKRSIEYSLASIFNKLNVGSRTEAVLIAKSDGVL
notes: ComA, Bacillus subtilis, full length, with one alanine substitution
Question: Does B3 bind (RapF [3])?
Answer: binds

B4: ComA-N194A (His-ComA mutant) (natural protein, B. subtilis, UniProt P14204 1-214, looked up)
chain: MKKILVIDDHPAVMEGTKTILETDSNLSVDCLSPEPSEQFIKQHDFSSYDLILMDLNLGGEVNGMELSKQILQENPHCKIIVYTGYEVEDYFEEAIRAGLHGAISKTESKEKITQYIYHVLNGEILVDFAYFKQLMTQQKTKPAPSSQKEQDVLTPRECLILQEVEKGFTNQEIADALHLSKRSIEYSLTSIFAKLNVGSRTEAVLIAKSDGVL
notes: as for B3
Question: Does B4 bind (RapF [3])?
Answer: binds

B5: ComA-R157A (His-ComA mutant) (natural protein, B. subtilis, UniProt P14204 1-214, looked up)
chain: MKKILVIDDHPAVMEGTKTILETDSNLSVDCLSPEPSEQFIKQHDFSSYDLILMDLNLGGEVNGMELSKQILQENPHCKIIVYTGYEVEDYFEEAIRAGLHGAISKTESKEKITQYIYHVLNGEILVDFAYFKQLMTQQKTKPAPSSQKEQDVLTPAECLILQEVEKGFTNQEIADALHLSKRSIEYSLTSIFNKLNVGSRTEAVLIAKSDGVL
notes: as for B3
Question: Does B5 bind (RapF [3])?
Answer: binds

Question: B6 was tested. Which “stoichiometry N” value [4] did it give?
Answer: 2

B7: ComA-Y187A (His-ComA mutant) (natural protein, B. subtilis, UniProt P14204 1-214, looked up)
chain: MKKILVIDDHPAVMEGTKTILETDSNLSVDCLSPEPSEQFIKQHDFSSYDLILMDLNLGGEVNGMELSKQILQENPHCKIIVYTGYEVEDYFEEAIRAGLHGAISKTESKEKITQYIYHVLNGEILVDFAYFKQLMTQQKTKPAPSSQKEQDVLTPRECLILQEVEKGFTNQEIADALHLSKRSIEASLTSIFNKLNVGSRTEAVLIAKSDGVL
notes: as for B3
Question: Does B7 bind (RapF [3])?
Answer: binds

B8: ComA (wild-type full-length ComA, no tag named) (natural protein, B. subtilis, UniProt P14204 1-214, looked up)
chain: MKKILVIDDHPAVMEGTKTILETDSNLSVDCLSPEPSEQFIKQHDFSSYDLILMDLNLGGEVNGMELSKQILQENPHCKIIVYTGYEVEDYFEEAIRAGLHGAISKTESKEKITQYIYHVLNGEILVDFAYFKQLMTQQKTKPAPSSQKEQDVLTPRECLILQEVEKGFTNQEIADALHLSKRSIEYSLTSIFNKLNVGSRTEAVLIAKSDGVL
notes: ComA response regulator, Bacillus subtilis, full length; Native PAGE used 'either 10 µM ComA or 10 µM His-ComA as indicated'; Purification of ComA is in Text S1; also called ComAFL
Question: What does the source list for B8?
Answer: binding result (RapF-P27A): binds; binding result (RapF-E71A): binds; Kd (RapF [5]): 1 to 10 µM

B9: ComA DNA binding domain (ComAC) (domain or fragment, B. subtilis, UniProt P14204 146-214, looked up)
chain: SSQKEQDVLTPRECLILQEVEKGFTNQEIADALHLSKRSIEYSLTSIFNKLNVGSRTEAVLIAKSDGVL
notes: also called His-ComAC
Question: Does B9 bind (RapF [6])?
Answer: binds
